In paper doi:10.1101/2024.06.03.596960 (bioRxiv, 2024):
“And” between values parts separate entries of the source, which are not always exact repeats. Equal values may be shown once.

How the values were obtained:
[1] = molecular target: BACH1 BTB domain (residues 7-128), wild type, tag-free (UniProt O14867); experiment: SEC-MALS
[2] = molecular target: biotinylated ^AviSKP1-FBXO22(12-403) (UniProt P63208); experiment: SPR
[3] = molecular target: biotinylated ^AviSKP1-FBXO22(12-403) (UniProt P63208); experiment: BLI
[4] = molecular target: BACH1^BTB A53V mutant (cancer-associated, TCGA) (UniProt O14867); experiment: SEC-MALS
BACH1^BTB E12R = BACH1^BTB E12R (UniProt O14867); experiment: SEC-MALS
BACH1^BTB F9A = BACH1^BTB F9A (UniProt O14867); experiment: SEC-MALS
BACH1^BTB S13A = BACH1^BTB S13A (UniProt O14867); experiment: SEC-MALS
BACH1^BTB S13D = BACH1^BTB S13D (UniProt O14867); experiment: SEC-MALS
BACH1^BTB Y11A = BACH1^BTB Y11A (UniProt O14867); experiment: SEC-MALS
BACH1^BTB Y11F = BACH1^BTB Y11F (UniProt O14867); experiment: SEC-MALS
[5] = molecular target: BACH1^BTB Y11H mutant (cancer-associated, TCGA) (UniProt O14867); experiment: SEC-MALS
BTFA-modified BACH1^BTB = BTFA-modified BACH1^BTB (UniProt O14867)
His10-TEV-BACH1^BTB = His10-TEV-BACH1^BTB (UniProt O14867); experiment: AlphaScreen or HTRF
[6] = molecular target: BACH1 BTB domain (residues 7-128), wild type, tag-free (UniProt O14867); experiment: NMR titration
[7] = molecular target: SKP1-FBXO22 heterodimer, wild type, tag-free (UniProt P63208); experiment: mass photometry
Sequence of SKP1-FBXO22 heterodimer, wild type, tag-free (UniProt P63208) (P63208 2-163, chain 1 of 2): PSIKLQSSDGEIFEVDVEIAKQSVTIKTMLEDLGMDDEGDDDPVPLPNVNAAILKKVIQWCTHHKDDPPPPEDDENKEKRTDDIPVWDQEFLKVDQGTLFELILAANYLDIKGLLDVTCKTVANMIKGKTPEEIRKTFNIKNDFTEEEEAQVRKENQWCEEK
Sequence of SKP1-FBXO22 heterodimer, wild type, tag-free (UniProt P63208) (Q8NEZ5 12-403, chain 2 of 2, further chain): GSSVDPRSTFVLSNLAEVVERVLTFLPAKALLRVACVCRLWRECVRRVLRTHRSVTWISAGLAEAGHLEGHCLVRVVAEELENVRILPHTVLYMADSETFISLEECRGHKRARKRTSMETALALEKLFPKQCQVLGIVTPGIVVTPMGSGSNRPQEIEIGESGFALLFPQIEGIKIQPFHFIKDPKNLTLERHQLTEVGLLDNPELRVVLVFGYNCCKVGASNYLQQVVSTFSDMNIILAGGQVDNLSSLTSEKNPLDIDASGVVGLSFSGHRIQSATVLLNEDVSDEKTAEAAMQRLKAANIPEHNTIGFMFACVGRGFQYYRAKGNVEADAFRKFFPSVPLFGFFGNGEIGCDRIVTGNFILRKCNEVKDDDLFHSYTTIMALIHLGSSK

mass photometry = molecular target: the molecule itself; experiment: mass photometry

Sequence of biotinylated ^AviSKP1-FBXO22(12-403) (P63208 2-163, chain 1 of 2): as the sequence (P63208 2-163, chain 1 of 2) above
Sequence of biotinylated ^AviSKP1-FBXO22(12-403) (Q8NEZ5 12-403, chain 2 of 2, further chain): as the sequence (Q8NEZ5 12-403, chain 2 of 2, further chain) above

Molecule: BACH1 BTB domain (residues 7-128), wild type, tag-free (from UniProt O14867 7-128) (domain or fragment)
- stoichiometry N [1]: 2
- Kd [2]: 0.0577 µM
- Kd [3]: 0.124 µM and 0.0839 µM

Molecule: BACH1^BTB A53V mutant (cancer-associated, TCGA) (from UniProt O14867 7-128) (domain or fragment)
- stoichiometry N [4]: 2

Molecule: BACH1^BTB E12R (from UniProt O14867 7-128) (domain or fragment)
- stoichiometry N (BACH1^BTB E12R): 2

Molecule: BACH1^BTB F9A (from UniProt O14867 7-128) (domain or fragment)
- stoichiometry N (BACH1^BTB F9A): 2

Molecule: BACH1^BTB S13A (from UniProt O14867 7-128) (domain or fragment)
- stoichiometry N (BACH1^BTB S13A): 2

Molecule: BACH1^BTB S13D (from UniProt O14867 7-128) (domain or fragment)
- stoichiometry N (BACH1^BTB S13D): 2

Molecule: BACH1^BTB Y11A (from UniProt O14867 7-128) (domain or fragment)
- stoichiometry N (BACH1^BTB Y11A): 2

Molecule: BACH1^BTB Y11F (from UniProt O14867 7-128) (domain or fragment)
- stoichiometry N (BACH1^BTB Y11F): 2

Molecule: BACH1^BTB Y11H mutant (cancer-associated, TCGA) (from UniProt O14867 7-128) (domain or fragment)
- stoichiometry N [5]: 2

Molecule: BTFA-modified BACH1^BTB (from UniProt O14867 7-128) (domain or fragment)
- stoichiometry N (BTFA-modified BACH1^BTB): 2

Molecule: SKP1-FBXO22 heterodimer, wild type, tag-free (from UniProt P63208 2-163; Q8NEZ5 12-403) (complex)
- IC50 (His10-TEV-BACH1^BTB): 0.495 µM
- stoichiometry N (equivalent SKP1-FBXO22) [6]: 1

B1: full-length BACH1 (residues 2-736), tag-free (natural protein)
chain: SLSENSVFAYESSVHSTNVLLSLNDQRKKDVLCDVTIFVEGQRFRAHRSVLAACSSYFHSRIVGQADGELNITLPEEVTVKGFEPLIQFAYTAKLILSKENVDEVCKCVEFLSVHNIEESCFQFLKFKFLDSTADQQECPRKKCFSSHCQKTDLKLSLLDQRDLETDEVEEFLENKNVQTPQCKLRRYQGNAKASPPLQDSASQTYESMCLEKDAALALPSLCPKYRKFQKAFGTDRVRTGESSVKDIHASVQPNERSENECLGGVPECRDLQVMLKCDESKLAMEPEETKKDPASQCPTEKSEVTPFPHNSSIDPHGLYSLSLLHTYDQYGDLNFAGMQNTTVLTEKPLSGTDVQEKTFGESQDLPLKSDLGTREDSSVASSDRSSVEREVAEHLAKGFWSDICSTDTPCQMQLSPAVAKDGSEQISQKRSECPWLGIRISESPEPGQRTFTTLSSVNCPFISTLSTEGCSSNLEIGNDDYVSEPQQEPCPYACVISLGDDSETDTEGDSESCSAREQECEVKLPFNAQRIISLSRNDFQSLLKMHKLTPEQLDCIHDIRRRSKNRIAAQRCRKRKLDCIQNLESEIEKLQSEKESLLKERDHILSTLGETKQNLTGLCQKVCKEAALSQEQIQILAKYSAADCPLSFLISEKDKSTPDGELALPSIFSLSDRPPAVLPPCARGNSEPGYARGQESQQMSTATSEQAGPAEQCRQSGGISDFCQQMTDKCTTDE
- stoichiometry N (BACH1^FL per SKP1-FBXO22 heterodimer) [7]: 2
- stoichiometry N (mass photometry): 2
- Kd [3]: 0.0443 µM and 0.0286 µM
- koff [3]: 0.0021 s⁻¹
- kon [3]: 470000 M⁻¹ s⁻¹
